Experimental data from publication PMC5923425, “Structural analysis of human ARS2 as a platform for co-transcriptional RNA sorting” (Nature Communications, 2018).
Each block holds one molecule with its values, some of them ahead of it.

B2: full-length NCBP3 (residues 1–620) (natural protein, human, UniProt Q53F19-1 1-620, looked up)
chain: MAAVRGLRVSVKAEAPAGPALGLPSPEAESGVDRGEPEPMEVEEGELEIVPVRRSLKELIPDTSRRYENKAGSFITGIDVTSKEAIEKKEQRAKRFHFRSEVNLAQRNVALDRDMMKKAIPKVRLETIYICGVDEMSTQDVFSYFKEYPPAHIEWLDDTSCNVVWLDEMTATRALINMSSLPAQDKIRSRDASEDKSAEKRKKDKQEDSSDDDEAEEGEVEDENSSDVELDTLSQVEEESLLRNDLRPANKLAKGNRLFMRFATKDDKKELGAARRSQYYMKYGNPNYGGMKGILSNSWKRRYHSRRIQRDVIKKRALIGDDVGLTSYKHRHSGLVNVPEEPIEEEEEEEEEEEEEEEEDQDMDADDRVVVEYHEELPALKQPRERSASRRSSASSSDSDEMDYDLELKMISTPSPKKSMKMTMYADEVESQLKNIRNSMRADSVSSSNIKNRIGNKLPPEKFADVRHLLDEKRQHSRPRPPVSSTKSDIRQRLGKRPHSPEKAFSSNPVVRREPSSDVHSRLGVPRQDSKGLYADTREKKSGNLWTRLGSAPKTKEKNTKKVDHRAPGAEEDDSELQRAWGALIKEKEQSRQKKSRLDNLPSLQIEVSRESSSGSEAES
notes: human NCBP3, full length, residues 1-620, cloned into pFASTBac HTb; also called NCBP3^1–620; source: High Five insect cells, purified; not shown: His6, N-terminal, cleaved
B6: ARS2^171–270+408–763 (domain or fragment, human)
chain 1: RYNDYKLDFRRQQMQDFFLAHKDEEWFRSKYHPDEVGKRRQEARGALQNRLRVFLSLMETGWFDNLLLDIDKADAIVKMLDAAVIKMEGGTENDLRILEQ
chain 2: GLECKPRPLHKTCSLFMRNIAPNISRAEIISLCKRYPGFMRVALSEPQPERRFFRRGWVTFDRSVNIKEICWNLQNIRLRECELSPGVNRDLTRRVRNINGITQHKQIVRNDIKLAAKLIHTLDDRTQLWASEPGTPPLPTSLPSQNPILKNITDYLIEEVSAEEEELLGSSGGAPPEEPPKEGNPAEINVERDEKLIKVLDKLLLYLRIVHSLDYYNTCEYPNEDEMPNRCGIIHVRGPMPPNRISHGEVLEWQKTFEEKLTPLLSVRESLSEEEAQKMGRKDPEQEVEKFVTSNTQELGKDKWLCPLSGKKFKGPEFVRKHIFNKHAEKIEEVKKEVAFFNNFLTDAKRPALPE
notes: human ARS2 (SRRT) isoform-e, residues 171-270, cloned into pETM11; human ARS2 (SRRT) isoform-e, residues 408-763, cloned for co-expression into pDUET and pET15b; Two co-expressed fragments of one protein that fold into one core; also called crystallised core; source: E. coli Rosetta 2, two fragments co-expressed, purified; not shown: His6, N-terminal, cleaved

What was measured:
[1] = target: CBP80 (NCBP1) (endogenous) (UniProt Q09161); assay: EGFP pull down, LC–MS/MS (AP–MS, TMT labelled); conditions: HEK 293T/17 cells; three independent affinity purifications per bait, except ARS2 wt in b (one pull down); read off a plot
PHAX (endogenous) = PHAX (endogenous) (UniProt Q9H814); assay: EGFP pull down, LC–MS/MS (AP–MS, TMT labelled); conditions: HEK 293T/17 cells; three independent affinity purifications per bait, except ARS2 wt in b (one pull down); read off a plot
[2] = target: CBP20 (NCBP2) (endogenous) (UniProt P52298); assay: EGFP pull down, LC–MS/MS (AP–MS, TMT labelled); conditions: HEK 293T/17 cells; three independent affinity purifications per bait, except ARS2 wt in b (one pull down); read off a plot
ARS2^147–871 [3] = target: T1, ARS2^147–871 (human, UniProt Q9BXP5-4 147-871); assay: ITC; MicroCal ITC200, 25 °C, ARS2 constructs with FLASH peptides; high salt (HS): buffer containing 250 mM NaCl; single-site fit; which partner was injected is not told; conditions: both partners purified
T1 construct: human ARS2 (SRRT) isoform-e, 871 residues, residues 147-871, cloned into pETM11; also called hARS2; SRRT; source: E. coli Rosetta 2, purified (Ni-Sepharose, TEV cleavage, HiTrap Q, heparin if necessary, SEC); not shown: His6, N-terminal, cleaved
T1 sequence (looked up): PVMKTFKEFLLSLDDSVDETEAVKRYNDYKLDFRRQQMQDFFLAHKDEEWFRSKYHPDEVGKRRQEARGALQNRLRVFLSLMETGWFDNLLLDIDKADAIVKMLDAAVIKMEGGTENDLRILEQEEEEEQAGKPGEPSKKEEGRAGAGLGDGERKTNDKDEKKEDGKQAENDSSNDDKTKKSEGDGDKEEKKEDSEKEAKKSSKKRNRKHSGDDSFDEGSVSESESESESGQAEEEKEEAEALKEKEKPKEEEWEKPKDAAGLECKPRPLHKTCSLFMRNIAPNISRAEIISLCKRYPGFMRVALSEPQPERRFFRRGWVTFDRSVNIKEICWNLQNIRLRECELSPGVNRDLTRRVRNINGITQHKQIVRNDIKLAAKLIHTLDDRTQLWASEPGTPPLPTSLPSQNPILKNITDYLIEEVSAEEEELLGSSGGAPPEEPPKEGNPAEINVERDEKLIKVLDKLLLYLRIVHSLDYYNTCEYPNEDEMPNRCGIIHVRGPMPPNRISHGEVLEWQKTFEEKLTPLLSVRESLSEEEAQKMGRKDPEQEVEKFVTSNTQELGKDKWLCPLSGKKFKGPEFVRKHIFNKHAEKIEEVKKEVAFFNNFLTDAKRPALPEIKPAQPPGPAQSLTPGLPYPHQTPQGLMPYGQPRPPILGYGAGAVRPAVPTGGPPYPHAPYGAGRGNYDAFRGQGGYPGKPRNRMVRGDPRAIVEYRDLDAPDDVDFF

ARS2^147–871 [4] = target: T1, ARS2^147–871; assay: SEC; purified proteins mixed, Superdex 200, 120 mM NaCl, 1 mM TCEP, 20 mM HEPES pH 7.8; in the absence of m7GTP; fractions on SDS-PAGE; conditions: both partners purified
GST-tagged ARS2^147–871 = target: T2, GST-tagged ARS2^147–871 (human, UniProt Q9BXP5-4 147-871); assay: pull-down; GST-tagged ARS2 147–871 on glutathione sepharose, NCBP3 constructs added, in the absence of the cap analogue; conditions: both partners purified
T2 construct: human ARS2 (SRRT) isoform-e, residues 147-871; The cloning of the GST fusion is not described; also called GST-ARS2; source: E. coli Rosetta 2 (said of all constructs but full-length NCBP3); held on glutathione sepharose
T2 sequence (looked up): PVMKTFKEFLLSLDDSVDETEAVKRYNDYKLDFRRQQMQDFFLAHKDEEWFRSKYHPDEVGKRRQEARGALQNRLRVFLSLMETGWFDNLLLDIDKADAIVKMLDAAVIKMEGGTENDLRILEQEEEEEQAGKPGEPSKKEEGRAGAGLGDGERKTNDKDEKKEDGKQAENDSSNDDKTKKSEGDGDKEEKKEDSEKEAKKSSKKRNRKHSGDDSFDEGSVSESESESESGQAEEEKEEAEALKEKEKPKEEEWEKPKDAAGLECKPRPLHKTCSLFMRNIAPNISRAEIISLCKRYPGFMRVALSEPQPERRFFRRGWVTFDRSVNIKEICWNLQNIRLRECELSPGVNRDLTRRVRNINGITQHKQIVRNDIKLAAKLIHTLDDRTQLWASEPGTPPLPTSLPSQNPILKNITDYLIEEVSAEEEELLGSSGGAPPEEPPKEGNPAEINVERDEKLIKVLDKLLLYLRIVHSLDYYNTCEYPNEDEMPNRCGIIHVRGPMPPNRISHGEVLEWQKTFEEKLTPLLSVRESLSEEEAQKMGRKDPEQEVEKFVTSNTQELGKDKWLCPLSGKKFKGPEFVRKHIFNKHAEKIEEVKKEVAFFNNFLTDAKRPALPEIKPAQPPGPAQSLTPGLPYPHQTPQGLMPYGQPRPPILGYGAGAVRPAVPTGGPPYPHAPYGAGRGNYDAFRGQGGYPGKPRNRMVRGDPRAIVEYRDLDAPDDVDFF

ARS2^147–871 [5] = target: T1, ARS2^147–871; assay: ITC; MicroCal ITC200, 25 °C, ARS2 constructs with NCBP3 1–282; buffer containing 250 mM NaCl; injections of 2.5 µL; conditions: both partners purified
[6] = target: B2; assay: pull-down; purified recombinant NCBP3 constructs immobilised on m7GTP sepharose, incubated with CBP80 and/or wild type or mutant ARS2; eluted fractions on Coomassie-stained SDS-PAGE; conditions: both partners purified
ARS2^171–270+408–763 = target: B6; assay: ITC; MicroCal ITC200, 25 °C, ARS2 constructs with FLASH peptides; high salt (HS): buffer containing 250 mM NaCl; single-site fit; which partner was injected is not told; conditions: both partners purified
ARS2^147–270+494–763 = target: T3, ARS2^147–270+494–763 (human, UniProt Q9BXP5-4 147-270; Q9BXP5-4 494-763); assay: ITC; MicroCal ITC200, 25 °C, ARS2 construct with FARB; not marked high salt: 20 mM HEPES, 120 mM, 2 mM TCEP pH 7.8; single-site fit; conditions: both partners purified
T3 construct: human ARS2 (SRRT) isoform-e, residues 147-270, cloned into pETM11; human ARS2 (SRRT) isoform-e, residues 494-763 (lacks the RRM domain), cloned for co-expression into pDUET and pET15b; Lacks the unstructured regions and the RRM domain; source: E. coli Rosetta 2, two fragments co-expressed, purified; not shown: His6, N-terminal, cleaved
T3 sequence (looked up) 1: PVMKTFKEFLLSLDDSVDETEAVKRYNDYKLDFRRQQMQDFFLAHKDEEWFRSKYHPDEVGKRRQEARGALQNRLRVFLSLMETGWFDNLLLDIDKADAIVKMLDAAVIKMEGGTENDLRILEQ
T3 sequence (looked up) 2: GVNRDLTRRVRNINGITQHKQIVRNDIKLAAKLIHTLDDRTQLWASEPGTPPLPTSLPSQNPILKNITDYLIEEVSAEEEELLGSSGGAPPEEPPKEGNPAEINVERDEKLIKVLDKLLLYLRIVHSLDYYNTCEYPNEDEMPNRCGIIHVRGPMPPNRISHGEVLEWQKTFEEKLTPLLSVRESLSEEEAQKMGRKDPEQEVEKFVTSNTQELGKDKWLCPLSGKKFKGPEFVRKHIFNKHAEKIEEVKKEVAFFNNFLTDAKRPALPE

Sequence of PHAX (endogenous) (Q9H814 whole entry): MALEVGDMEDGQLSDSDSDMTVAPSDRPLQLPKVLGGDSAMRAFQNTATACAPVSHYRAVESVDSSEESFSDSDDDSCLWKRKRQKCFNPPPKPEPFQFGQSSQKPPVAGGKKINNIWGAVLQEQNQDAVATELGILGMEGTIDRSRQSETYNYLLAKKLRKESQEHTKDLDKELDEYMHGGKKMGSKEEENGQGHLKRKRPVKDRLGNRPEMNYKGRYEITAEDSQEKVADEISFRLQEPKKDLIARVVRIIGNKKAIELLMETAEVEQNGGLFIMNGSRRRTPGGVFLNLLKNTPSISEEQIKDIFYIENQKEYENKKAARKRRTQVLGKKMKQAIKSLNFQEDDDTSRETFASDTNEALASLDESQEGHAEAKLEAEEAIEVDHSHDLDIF
Sequence of CBP80 (NCBP1) (endogenous) (Q09161 whole entry): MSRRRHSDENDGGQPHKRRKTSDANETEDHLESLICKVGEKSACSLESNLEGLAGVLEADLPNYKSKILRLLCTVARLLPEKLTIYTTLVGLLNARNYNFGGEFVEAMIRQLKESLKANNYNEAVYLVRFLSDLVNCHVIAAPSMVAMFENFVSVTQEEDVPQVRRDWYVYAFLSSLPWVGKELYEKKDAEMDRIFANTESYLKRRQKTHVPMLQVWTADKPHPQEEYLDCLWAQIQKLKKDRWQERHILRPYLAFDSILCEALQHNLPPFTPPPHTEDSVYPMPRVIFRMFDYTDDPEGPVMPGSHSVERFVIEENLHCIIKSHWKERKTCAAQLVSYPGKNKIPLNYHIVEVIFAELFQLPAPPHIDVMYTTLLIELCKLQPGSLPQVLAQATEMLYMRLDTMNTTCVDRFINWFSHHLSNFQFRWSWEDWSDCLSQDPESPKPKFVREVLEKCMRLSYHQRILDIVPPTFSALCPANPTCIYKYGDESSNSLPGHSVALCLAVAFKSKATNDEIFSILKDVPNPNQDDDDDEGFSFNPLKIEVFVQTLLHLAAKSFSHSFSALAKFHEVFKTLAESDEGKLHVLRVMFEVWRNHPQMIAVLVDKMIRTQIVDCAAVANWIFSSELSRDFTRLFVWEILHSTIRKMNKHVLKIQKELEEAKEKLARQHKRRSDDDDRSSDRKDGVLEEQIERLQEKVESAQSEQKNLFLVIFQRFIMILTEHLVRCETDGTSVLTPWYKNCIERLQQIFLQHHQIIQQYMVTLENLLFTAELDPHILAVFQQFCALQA
Sequence of CBP20 (NCBP2) (endogenous) (P52298 whole entry): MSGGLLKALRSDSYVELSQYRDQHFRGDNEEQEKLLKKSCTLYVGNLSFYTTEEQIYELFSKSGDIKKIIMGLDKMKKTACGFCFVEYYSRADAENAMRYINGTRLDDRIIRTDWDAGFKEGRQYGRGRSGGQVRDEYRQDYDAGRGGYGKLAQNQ

Molecule: B2
- binding result (ARS2^147–871 [4]): binds
- binding result (GST-tagged ARS2^147–871): binds

B3: NCBP3^1–282 (domain or fragment, human, UniProt Q53F19-1 1-282, looked up)
chain: MAAVRGLRVSVKAEAPAGPALGLPSPEAESGVDRGEPEPMEVEEGELEIVPVRRSLKELIPDTSRRYENKAGSFITGIDVTSKEAIEKKEQRAKRFHFRSEVNLAQRNVALDRDMMKKAIPKVRLETIYICGVDEMSTQDVFSYFKEYPPAHIEWLDDTSCNVVWLDEMTATRALINMSSLPAQDKIRSRDASEDKSAEKRKKDKQEDSSDDDEAEEGEVEDENSSDVELDTLSQVEEESLLRNDLRPANKLAKGNRLFMRFATKDDKKELGAARRSQYYMK
notes: cloned into pETM11; also called N-terminal region of NCBP3; source: E. coli Rosetta 2, purified; not shown: His6, N-terminal, cleaved
- binding result (ARS2^147–871 [5]): binds
- binding result (GST-tagged ARS2^147–871): binds

Molecule: B6
- binding result [6]: binds

The next lines start with the values.

- other: log2 (fold change) [1]: -4
- other: log2 (fold change) (PHAX (endogenous)): -2.6
- other: log2 (fold change) [2]: -3.9
Molecule: EGFP–ARS2 wt (from UniProt Q9BXP5-4) R854A; R859A; F871A

- Kd (ARS2^147–871 [3]): 5.5 µM
B1: FLASH^921–946 peptide (peptide, UniProt Q9UKL3 921-946, looked up)
peptide: EADTCKNSPLDELEEGEIRSDSETSK
notes: FLASH (FLICE-associated huge protein), residues 921-946, holds FARB (931-943); source: synthetic peptide, bought: GeneScript

- binding result [6]: binds
B4: ARS2^147–270+408–763ΔloopB (domain or fragment, human)
chain 1: PVMKTFKEFLLSLDDSVDETEAVKRYNDYKLDFRRQQMQDFFLAHKDEEWFRSKYHPDEVGKRRQEARGALQNRLRVFLSLMETGWFDNLLLDIDKADAIVKMLDAAVIKMEGGTENDLRILEQ
chain 2: GLECKPRPLHKTCSLFMRNIAPNISRAEIISLCKRYPGFMRVALSEPQPERRFFRRGWVTFDRSVNIKEICWNLQNIRLRECELSPGVNRDLTRRVRNINGITQHKQIVRNDIKLAAKLIHTLDDRTQLWASEPGTPPLPTSLPSQNPILKNITDYLIEEGSGSGSERDEKLIKVLDKLLLYLRIVHSLDYYNTCEYPNEDEMPNRCGIIHVRGPMPPNRISHGEVLEWQKTFEEKLTPLLSVRESLSEEEAQKMGRKDPEQEVEKFVTSNTQELGKDKWLCPLSGKKFKGPEFVRKHIFNKHAEKIEEVKKEVAFFNNFLTDAKRPALPE
notes: human ARS2 (SRRT) isoform-e, residues 147-270; human ARS2 (SRRT) isoform-e, from 408 to E567, before the deleted loop B; linker that replaces loop B (568-598); human ARS2 (SRRT) isoform-e, from E599 to 763, after the deleted loop B; the crystallisation methods print ∆566–598GSGSGS; also called ARS2^147–270+408–763Δ568–598 (Δloop B); Human ARS2 147-270+408-763 Δloop B: Δ568–598 E567–GSGSGS–E599; …

- Kd (ARS2^171–270+408–763): 3.8 µM
- Kd (ARS2^147–871 [3]): 5.1 µM
- Kd (ARS2^147–270+494–763): 0.5 µM
B5: FARB (FLASH–ARS2-binding region) peptide of FLASH, residues 931–943 (peptide)
peptide: DELEEGEIRSDSE
notes: FLASH (FLICE-associated huge protein), residues 931-943; also called FLASH^931–943; source: synthetic peptide, bought: GeneScript
